Data: patent publication EP4793287A1, “TUMOR MICROENVIRONMENT SPECIFICALLY ACTIVATED CD47 ANTIBODY” (Affinity (Shanghai) Biopharmaceutical Co., Ltd., priority 2023, dated 2025)

Target: T1, binding of CD47 on Raji cells to SIRPα (Homo sapiens, UniProt Q08722)
T1 construct: endogenous in cells; host or cells: Raji
Experiment: Blocking of SIRPα binding on Raji cells (FACS)
Format: cell-based
Procedure: The required cell line, Raji (cultured in RPMI-1640 (ATCC Modification, Gibco, Cat# A10491-01) + 10% FBS (BI, Cat# 04-001-1A) + 1× P/S), was expanded to the logarithmic phase. Cells were collected and pipetted to create a single-cell suspension, followed by centrifugation and removal of the supernatant. The cells were resuspended in FACS buffer (PBS + 2% FBS) and counted, and the cell density was adjusted to 2×10^6/ml. 100 µl/well of this suspension was added to a 96-well plate (Corning, Cat# 3799). After centrifugation and removal of the supernatant, 100 µl/well of the antibody sample to be tested (CD47 Antibodies at an initial concentration of 200 nM, with 5-fold gradient dilutions and 8 dilution points, mixed with an equal volume of Human SIRP alpha, mFc (DIMA Biotech, Cat# PME100531) at 16 µg/ml) was added, mixed with the cells, and incubated at 4 °C for 1 hour. Cells were washed by centrifugation with FACS buffer for three times, then added with 100 µl/well of Goat F(ab')2 Anti-Mouse IgG-Fc (PE), pre-adsorbed (abcam, Cat# ab98742, 1:200 dilution) and incubated at 4 °C for 1 hour. After three washes with FACS buffer by centrifugation, the cells were resuspended in 200 µl/well of FACS buffer and analyzed using FACS (BECKMAN COULTER, CytoFLEX). Data were fitted and the results were analyzed using software (GraphPad Prism 8).

T1 sequence (Q08722 19-323): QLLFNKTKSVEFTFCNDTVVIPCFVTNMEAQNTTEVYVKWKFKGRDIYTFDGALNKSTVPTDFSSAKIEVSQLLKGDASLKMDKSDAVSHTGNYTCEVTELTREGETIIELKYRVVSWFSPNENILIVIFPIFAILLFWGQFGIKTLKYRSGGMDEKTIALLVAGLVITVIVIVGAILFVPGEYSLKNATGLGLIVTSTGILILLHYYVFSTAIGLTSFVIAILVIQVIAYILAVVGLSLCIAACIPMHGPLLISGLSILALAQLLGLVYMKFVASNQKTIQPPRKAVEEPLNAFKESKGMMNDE

B1: CD47 TMEAbody: CD47 TMEAbody conjugated with PEG of approximately 20K molecular weight (i.e., PEG20K) (conjugate)
VH: QQQLEESGGGLVKPEGSLTLTCTASGFSFSSGYDMCWVRQAPGRGLEWIACIYTRSSGGTCYASWAKGRFTISKTSSTVDLRMTSLTAADTATYFCAGGRSSYRLNLWGQGALVTVSS
VL: DVVMTQTPSPVEAAVGGTVTIKCQASQSISNELSWYQQKPGQPPKLLIYRASTLESGVSSRFKGSGSGTEFTLTISDLECADAATYYCQSTFYGDYGNAFGGGTEVVVK
For B1, the “activity in blocking the binding of CD47 on Raji cells to SIRPα” value (after the CD47 TMEAbody was activated) was “restored” and the “activity in blocking the binding of CD47 on Raji cells to SIRPα” value (not activated) was “significantly reduced”.
